Results as given in patent publication US20260242735A1 (UNIVERSIT T BASEL, published 2026).

How the values were obtained:
Test in all cases: flow cytometry on HEK293-T, alanine scan
human CD33 V165A = human CD33 V165A (human, UniProt P20138 18-364)
human CD33 D140A = human CD33 D140A (human, UniProt P20138 18-364)
human CD33 N99A = human CD33 N99A (human, UniProt P20138 18-364)
human CD33 R109A = human CD33 R109A (human, UniProt P20138 18-364)
human CD33 P132A = human CD33 P132A (human, UniProt P20138 18-364)
human CD33 P155A = human CD33 P155A (human, UniProt P20138 18-364)
human CD33 V106A = human CD33 V106A (human, UniProt P20138 18-364)
human CD33 P96A = human CD33 P96A (human, UniProt P20138 18-364)
human CD33 S158A = human CD33 S158A (human, UniProt P20138 18-364)
human CD33 W167A = human CD33 W167A (human, UniProt P20138 18-364)
human CD33 S166A = human CD33 S166A (human, UniProt P20138 18-364)
human CD33 D112A = human CD33 D112A (human, UniProt P20138 18-364)
human CD33 S164A = human CD33 S164A (human, UniProt P20138 18-364)
human CD33 R119A = human CD33 R119A (human, UniProt P20138 18-364)
human CD33 R122A = human CD33 R122A (human, UniProt P20138 18-364)
human CD33 K130A = human CD33 K130A (human, UniProt P20138 18-364)
human CD33 N160A = human CD33 N160A (human, UniProt P20138 18-364)
human CD33 G114A = human CD33 G114A (human, UniProt P20138 18-364)
human CD33 N100A = human CD33 N100A (human, UniProt P20138 18-364)
human CD33 L153A = human CD33 L153A (human, UniProt P20138 18-364)
human CD33 S124A = human CD33 S124A (human, UniProt P20138 18-364)
human CD33 G151A = human CD33 G151A (human, UniProt P20138 18-364)
human CD33 T139A = human CD33 T139A (human, UniProt P20138 18-364)
human CD33 E154A = human CD33 E154A (human, UniProt P20138 18-364)
human CD33 K159A = human CD33 K159A (human, UniProt P20138 18-364)
human CD33 Q133A = human CD33 Q133A (human, UniProt P20138 18-364)
human CD33 F118A = human CD33 F118A (human, UniProt P20138 18-364)
human CD33 Y127A = human CD33 Y127A (human, UniProt P20138 18-364)
human CD33 I149A = human CD33 I149A (human, UniProt P20138 18-364)
human CD33 V138A = human CD33 V138A (human, UniProt P20138 18-364)
human CD33 S115A = human CD33 S115A (human, UniProt P20138 18-364)
human CD33 S102A = human CD33 S102A (human, UniProt P20138 18-364)
human CD33 R98A = human CD33 R98A (human, UniProt P20138 18-364)
human CD33 P145A = human CD33 P145A (human, UniProt P20138 18-364)
human CD33 R144A = human CD33 R144A (human, UniProt P20138 18-364)
human CD33 L141A = human CD33 L141A (human, UniProt P20138 18-364)

Sequence of human CD33 N100A (P20138 18-364 N100A limits assumed): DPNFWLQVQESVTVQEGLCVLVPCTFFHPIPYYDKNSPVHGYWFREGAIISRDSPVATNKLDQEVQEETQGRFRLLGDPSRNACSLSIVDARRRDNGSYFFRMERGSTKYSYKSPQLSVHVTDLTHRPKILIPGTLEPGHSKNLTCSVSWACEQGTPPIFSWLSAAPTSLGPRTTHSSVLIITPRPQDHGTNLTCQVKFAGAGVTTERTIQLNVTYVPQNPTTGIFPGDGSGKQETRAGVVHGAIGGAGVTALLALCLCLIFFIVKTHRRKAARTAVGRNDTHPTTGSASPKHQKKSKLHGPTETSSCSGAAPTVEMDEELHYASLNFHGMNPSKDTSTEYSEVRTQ
Sequence of human CD33 S158A (P20138 18-364 S158A limits assumed): as the sequence (P20138 18-364 N100A limits assumed) above, with A83N, S141A counted along it
Sequence of human CD33 R144A (P20138 18-364 R144A limits assumed): as the sequence (P20138 18-364 N100A limits assumed) above, with A83N, R127A counted along it
Sequence of human CD33 D140A (P20138 18-364 D140A limits assumed): as the sequence (P20138 18-364 N100A limits assumed) above, with A83N, D123A counted along it
Sequence of human CD33 Q133A (P20138 18-364 Q133A limits assumed): as the sequence (P20138 18-364 N100A limits assumed) above, with A83N, Q116A counted along it
Sequence of human CD33 D112A (P20138 18-364 D112A limits assumed): as the sequence (P20138 18-364 N100A limits assumed) above, with A83N, D95A counted along it
Sequence of human CD33 S166A (P20138 18-364 S166A limits assumed): as the sequence (P20138 18-364 N100A limits assumed) above, with A83N, S149A counted along it
Sequence of human CD33 P145A (P20138 18-364 P145A limits assumed): as the sequence (P20138 18-364 N100A limits assumed) above, with A83N, P128A counted along it
Sequence of human CD33 V165A (P20138 18-364 V165A limits assumed): as the sequence (P20138 18-364 N100A limits assumed) above, with A83N, V148A counted along it
Sequence of human CD33 R122A (P20138 18-364 R122A limits assumed): as the sequence (P20138 18-364 N100A limits assumed) above, with A83N, R105A counted along it
Sequence of human CD33 N99A (P20138 18-364 N99A limits assumed): as the sequence (P20138 18-364 N100A limits assumed) above, with N82A, A83N counted along it
Sequence of human CD33 Y127A (P20138 18-364 Y127A limits assumed): as the sequence (P20138 18-364 N100A limits assumed) above, with A83N, Y110A counted along it
Sequence of human CD33 E154A (P20138 18-364 E154A limits assumed): as the sequence (P20138 18-364 N100A limits assumed) above, with A83N, E137A counted along it
Sequence of human CD33 P132A (P20138 18-364 P132A limits assumed): as the sequence (P20138 18-364 N100A limits assumed) above, with A83N, P115A counted along it

Binder	Mean % WT Binding (human CD33 V165A) [% WT binding]	Mean % WT Binding (human CD33 D140A) [% WT binding]	Mean % WT Binding (human CD33 N99A) [% WT binding]	Mean % WT Binding (human CD33 R109A) [% WT binding]	Mean % WT Binding (human CD33 P132A) [% WT binding]	Mean % WT Binding (human CD33 P155A) [% WT binding]	Mean % WT Binding (human CD33 V106A) [% WT binding]	Mean % WT Binding (human CD33 P96A) [% WT binding]	Mean % WT Binding (human CD33 S158A) [% WT binding]	Mean % WT Binding (human CD33 W167A) [% WT binding]	Mean % WT Binding (human CD33 S166A) [% WT binding]	Mean % WT Binding (human CD33 D112A) [% WT binding]	Mean % WT Binding (human CD33 S164A) [% WT binding]	Mean % WT Binding (human CD33 R119A) [% WT binding]	Mean % WT Binding (human CD33 R122A) [% WT binding]	Mean % WT Binding (human CD33 K130A) [% WT binding]	Mean % WT Binding (human CD33 N160A) [% WT binding]	Mean % WT Binding (human CD33 G114A) [% WT binding]	Mean % WT Binding (human CD33 N100A) [% WT binding]	Mean % WT Binding (human CD33 L153A) [% WT binding]	other results
Refmab #1 (antibody, V domains shown, The alanine scan used IgG or Fab; also called hP67.6) VH: EVQLVQSGAEVKKPGSSVKVSCKASGYTITDSNIHWVRQAPGQSLEWIGYIYPYNGGTDYNQKFKNRATLTVDNPTNTAYMELSSLRSEDTAFYYCVNGNPWLAYWGQGTLVTVSS VL: DIQLTQSPSTLSASVGDRVTITCRASESLDNYGIRFLTWFQQKPGKAPKLLMYAASNQGSGVPSRFSGSGSGTEFTLTISSLQPDDFATYYCQQTKEVPWSFGQGTKVEVK	91.6	88.7	80.2	101	107	84.4	88.5	84.9	87.1	89.4	98.3	51.8	101	109	107	106	82.3	96.9	94.8	75.7	Mean % WT Binding (human CD33 S124A): 87.5 % WT binding; Mean % WT Binding (human CD33 G151A): 81.1 % WT binding; Mean % WT Binding (human CD33 T139A): 89.9 % WT binding; Mean % WT Binding (human CD33 E154A): 88 % WT binding; Mean % WT Binding (human CD33 K159A): 119 % WT binding; Mean % WT Binding (human CD33 Q133A): 95.6 % WT binding; Mean % WT Binding (human CD33 F118A): 0.1 % WT binding; Mean % WT Binding (human CD33 Y127A): 92.6 % WT binding; Mean % WT Binding (human CD33 I149A): 87.5 % WT binding; Mean % WT Binding (human CD33 V138A): 72.3 % WT binding; Mean % WT Binding (human CD33 S115A): 86.9 % WT binding; Mean % WT Binding (human CD33 S102A): 85.8 % WT binding; Mean % WT Binding (human CD33 R98A): 99.1 % WT binding; Mean % WT Binding (human CD33 P145A): 89.3 % WT binding; Mean % WT Binding (human CD33 R144A): 110 % WT binding; Mean % WT Binding (human CD33 L141A): 103 % WT binding
Refmab #4 (antibody, V domains shown, The alanine scan used IgG or Fab) VH: QVQLVQSGAEVKKPGESVKVSCKASGYTFTNYGMNWVKQAPGQGLEWMGWINTYTGEPTYADKFQGRVTMTTDTSTSTAYMEIRNLGGDDTAVYYCARWSWSDGYYVYFDYWGQGTSVTVSS VL: DIVMTQSPDSLTVSLGERTTINCKSSQSVLDSSTNKNSLAWYQQKPGQPPKLLLSWASTRESGIPDRFSGSGSGTDFTLTIDSPQPEDSATYYCQQSAHFPITFGQGTRLEIK	117	96.1	43.5	99.5	70.1	111	110	27.4	98	112	110	36	112	138	23	180	102	110	123	92.5	Mean % WT Binding (human CD33 S124A): 58.8 % WT binding; Mean % WT Binding (human CD33 G151A): 101 % WT binding; Mean % WT Binding (human CD33 T139A): 84.3 % WT binding; Mean % WT Binding (human CD33 E154A): 84.4 % WT binding; Mean % WT Binding (human CD33 K159A): 118 % WT binding; Mean % WT Binding (human CD33 Q133A): 96 % WT binding; Mean % WT Binding (human CD33 F118A): 6 % WT binding; Mean % WT Binding (human CD33 Y127A): 300 % WT binding; Mean % WT Binding (human CD33 I149A): 99.9 % WT binding; Mean % WT Binding (human CD33 S115A): 36.4 % WT binding; Mean % WT Binding (human CD33 S102A): 73.6 % WT binding; Mean % WT Binding (human CD33 R98A): 128 % WT binding; Mean % WT Binding (human CD33 P145A): 78.8 % WT binding; Mean % WT Binding (human CD33 R144A): 99.7 % WT binding; Mean % WT Binding (human CD33 L141A): 93.7 % WT binding
Refmab #2 (antibody, V domains shown, The alanine scan used IgG or Fab) VH: QVQLVQSGAEVKKPGSSVKVSCKASGGTFSDYAISWVRQAPGQGLEWMGRIIPILGVADYAQKFQGRVTITADKSTRTAYMELSSLRSEDTAVYYCARNWADAFDIWGQGTMVTVSS VL: DIQLTQSPSSLSASVGDRVTITCRASQGISSVLAWYQQKPGKAPKLLIYDASSLESGVPSRFSGSGSGTDFTLTISSLQPEDFATYYCQQFDSSITFGQGTKLEIK	124	109	56.8	104	102	126	112	102	111	109	114	58.7	117	130	3.6	123	107	116	97	121	Mean % WT Binding (human CD33 S124A): 111 % WT binding; Mean % WT Binding (human CD33 G151A): 132 % WT binding; Mean % WT Binding (human CD33 T139A): 123 % WT binding; Mean % WT Binding (human CD33 E154A): 112 % WT binding; Mean % WT Binding (human CD33 K159A): 134 % WT binding; Mean % WT Binding (human CD33 Q133A): 131 % WT binding; Mean % WT Binding (human CD33 F118A): 0.6 % WT binding; Mean % WT Binding (human CD33 Y127A): 146 % WT binding; Mean % WT Binding (human CD33 I149A): 116 % WT binding; Mean % WT Binding (human CD33 V138A): 98.5 % WT binding; Mean % WT Binding (human CD33 S115A): 93.2 % WT binding; Mean % WT Binding (human CD33 S102A): 89.6 % WT binding; Mean % WT Binding (human CD33 R98A): 122 % WT binding; Mean % WT Binding (human CD33 P145A): 105 % WT binding; Mean % WT Binding (human CD33 R144A): 112 % WT binding; Mean % WT Binding (human CD33 L141A): 113 % WT binding
